Results published in the DeepSol protein solubility set.

Test: soluble on expression in E. coli; label from the status in PepcDB or PDB records

Row | Sequence | soluble on expression in E. coli
1 | MGHHHHHHSHMDDKKKKRSPKPCLAQPAQAPGTLRRVPVPTSHSGSLALGLPHLPSPKQRAKFKRVGKEKCRPVLAGGGSGSAGTPLQHSFLTEVTDVYEMEGGLLNLLNDFHSGRLQAFGKECSFEQLEHVREMQEKLARLHFSLDVCGEEEDDEEEEDGVTEGLPEEQKKTMADRNLDQLLSNLEDLSNSMYPFQGTRLCVCVPERSVSSSPALQEYSHTTNFPTSCSPVRFSHRLPKPRYRNLEFPQN | not soluble
2 | MGHHHHHHSHMDIQKSENEDDSEWEDVDDEKGDSNDDYDSAGLLSDEDCMSVPGKTHRAIADHLFWSEETKSRFTEYSMTSSVMRRNEQLTLHDERFEKFYEQYDDDEIGALDNAELEGSIQVDSNRLQEVLNDYYKEKAENCVKLNTLEPLEDQDLPMNELDESEEEEMITVVLEEAKEKWDCESICSTYSNLYNHPQLIKYQPKPKQIRISSKTGIPLNVLPKKGLTAKQTERIQMINGSDLPKVSTQPRSKNESKEDKRARKQAIKEERKERRVEKKANKLAFKLEKRRQEKELLNLKKNVEGLKL | not soluble
3 | MGHHHHHHSHMDWNKTYAAIYRARKDYLKPIFEIDPIALKDLVGMESQKKALYENTLNFIQDKGANHALLWGSKGTGKSSLIKAIFNEFKEQGLRLVELNKEDLFALADIIDEIRLENFKFILFCDDFSFEKGDDSYKFLKPLLEGSIEKAPNNVIIYASSNRRHLLSESITDNLDTQITHTELHLSDAAEERLSLSDRFG | soluble
4 | MGHHHHHHSHMEEAGSVALEELVEKEKDRFFSGVDYIVISDNLWISQRKPAITYGTRGNSYFMVEVKCRDQDFHSGTFGGILHEPMADLVALLGSLVDSSGHILVPGIYDEVVPLTEEEINTYKAIHLDLEEYRNSSRVEKFLFDTKEEILMHLWRYPSLSIHGIEGAFDEPGTKTVIPGRVIGKFSIRLVPHMNVSAVEKQVTRHLEDVFSKRNSSNKMVVSMTLGLHPWIANIDDTQYLAAKRAIRTVFGTEPDMIRDGSTIPIAKMFQEIVHKSVVLIPLGAVDDGEHSQNEKINRWNYIEGTKLFAAFFLEMAQLH | not soluble
5 | MGHHHHHHSHMEELLPDGQIWANMDPEERMLAAATAFTHICAGQGEGDVRREAQSIQYDPYSKASVAPGKRPALPVQLQYPHVESNVPSETVSEASQRLRKPVMKRKVLRRKPDGEVLVTDESIISESESGTENDQDLWDLRQRLMNVQFQEDKESSFDVSQKFNLPHEYQGISQDQLICSLQREGMGSPAYEQDLIVASRPKSFILPKLDQLSRNRGKTDRVARYFEYKRDWDSIRLPGEDHRKELRWGVREQMLCRAEPQSKPQHIYVPNNYLVPTEKKRSALRWGVRCDLANGVIPRKLPFPLSPS | not soluble
6 | MGHHHHHHSHMEEMKKTAIRLPKGKQKPIKTEWNSRCVLFTYFQGDISSVVDEHFSRALSNIKSPQELTPSSQSEGVMLKNDDSMSPNQWRYSSPWTKPQPEVPVTNRAANCNLHVPGPMAVNQFSPSLARRASVRPGELWHFSSLAGTSSLEPGYSHPFPARHLVPEPQPDGKREPLLSLLQQDRCLARPQESAARENGNPGQIAGSTGLLFNLPPGSVHYKKLYVSRGSASTSLPNETLSELETPGKYSLTPPNHWGHPHRYLQHL | not soluble
7 | MGHHHHHHSHMFGYVVVNEQNSIVFLDGNEEFKTIFQSLIQSEITSRKSDLDSASSGVGSSTCTEEQESSLDHFKKPNVVFNSSEISHILLPLILLYRSTSEKTKDPITEMSSQFGTISISKFYHNYLVLVFANDDRKRIEVSQTIEHTIATLFGPLIAFCHTDLTTVKKPKEHLACALTRKLSYSPKC | not soluble
8 | MGHHHHHHSHMGNCCWTQCFGLLRKEAGRLQRVGGGGGSKYFRTCSRGEHLTIEFENLVESDEGESPGSSHRPLTEEEIVDLRERHYDSIAEKQKDLDKKIQKEQERQRIVQQYHPSNNGEYQSSGPEDDFESCLRNMKSQYEVFRSSRLSSDATVLTPNTESSCDLMTKTKSTSGNDDSTSLDLEWEDEEGMNRMLPMRERSKTEEDILRAALKYSNKETGSNPTSASDDSNGLEWENDFVSAEMDDNGNSEYSGFVNPVLELSDSGIRHSDTDQQTR | soluble
9 | MGHHHHHHSHMGNCQAVNAAVLVLQHPGGIIDRYYSSVSVTEVMAMYPGHYVSLIIPLSEEEEKNIPATEKGDDKKQRKAVRFTRVQLLRPTENLVLGHAYRLITSQEVMKVLREKKSAKTKKHQIEKTTTAKKFSDKKVPEKKQGKQFRVIRNSTSLLKSKTWRPSLQSISEATS | soluble
10 | MGHHHHHHSHMGNDKRSQIFTLSRYAGILRRCLKENAMSAQKPGLHPRNRHHSRYDLATLCQVNPELRQFLTLTPAGEQSVDFANPLAVKALNKALLAHFYAVANWDIPDGFLCPPVPGRADYIHHLADLLAEASGTIPANASILDIGVGANCIYPLIGVHEYGWRFTGSETSSQALSSAQAIISSNPGLNRAIRLRRQKESGAIFNGIIHKNEQYDATLCNPPFHDSAAAARAGSERKRRNLGLNKDDALNFGGQQQELWCEGGEVTFIKKMIEESKGFAKQVMWFTSLVSRGENLPPLYRALTDVGAVKVVKKEMAQGQKQSRFIAWTFMNDEQRRRFVNRQR | soluble
11 | MGHHHHHHSHMGYIYIVSFGDVEDRLLLADASNVKEIFDLEVRVSTVKADIEEAYNPQRNQYHAGTILSYLSRVVYPDMVRLVALVSFDLYEEGLNFVFGEAQYGGKYAVVSTYRLYHPDERVFFERVFKETNHELGHTFGLKHCPDPYCVMSFSNSIDEVDRKSRDFCPNCRRKLDYVLSYYR | not soluble
12 | MGHHHHHHSHMHTPEVASPSPGDRCREKSSPRPQTRFPSWHRVGDGWRVSIGTARSGCCQVGPCQGSSPLSTLCLAVPAPRYSNMACTQQSGGTTMVTADAPRLCLVNVAEQNGRLDPEEGPLSWHLSLAT | not soluble
13 | MGHHHHHHSHMIALKMFYTEETYEQFFDYGLDYVIDASDTICYKIHLMKECLKRDIPLISSMGAANKTDPTRFQIADISKTHTDPIAKVVRTKLRKEGIKKGVQVIFSDESPIVIREDVRKEVGNDEAKIRKAKMPPSSNAFVPSVAGLIMGGHVVMDLLKDIEIKRVKDK | soluble
14 | MGHHHHHHSHMKMGYEEVSQKFTSIRRVRGDNYCALRATLFQAMSQAVGLPPWLQDPELMLLPEKLISKYNWIKQWKLGLKFDGKNEDLVDKIKESLTLLRKKWAGLAEMRTAEARQIACDELFTNEAEEYSLYEAVKFLMLNRAIELYNDKEKGKEVPFFSVLLFARDTSNDPGQLLRNHLNQVGHTGGLEQVEMFLLAYAVRHTIQVYRLSKYNTEEFITVYPTDPPKDWPVVTLIAEDDRHYNIPVRVCEETSL | soluble
15 | MGHHHHHHSHMLDDQEAKREAETFKEQGNAYYAKKDYNEAYNYYTKAIDMCPKNASYYGNRAATLMMLGRFREALGDAQQSVRLDDSFVRGHLREGKCHLSLGNAMAACRSFQRALELDHKNAQAQQEFKNANAVMEYEKIAETDFEKRDFRKV | not soluble
16 | MGHHHHHHSHMLEPQENGVIDLPDYEHVEDETFPPFPPPASPERQDGEGTEPDEESGNGAPVPVPPKRTVKRNIPKLDAQRLISERGLPALRHVFDKAKFKGKGHEAEDLKMLIRHMEHWAHRLFPKLQFEDFIDRVEYLGSKKEVQTCLKRIRLDLPILHEDFVSNNDEVAENNEHDVTSTELDPFLTNLSESEMFASELSRSLTEEQQRRIERNKQLALERRQAKLLSNSQTLGNDMLMNTPRAHTVEEVNTDEDQKEESNGLNEDILDNPCNDAIANTLNEEETLLDQSFKNVQQQLDATSRNITEAR | soluble
17 | MGHHHHHHSHMLQPPKIVAELSANHNQDLNLAKESLHAIKESGADFVKLQTYTPSCMTLNSKEDPFIIQGTLWDKENLYELYQKASTPLEWHAELFELARKLDLGIFSSPFSSQALELLESLNCPMYKIASFEIVDLDLIEKAARTQKPIILSSGIATHTELQDAISLCRRVNNFDITLLKCVSAYPSKIEDANLLSMVKLGEIFGVKFGLSDHTIGSLCPILATTLGASMIEKHFILNKSLQTPDSAFSMDFNGFKSMVEAIKQSVLALGEEEPRINPKTLEKRRFFARSLFVIKDIQKGEALTENNIKALRPNLGLHPKFYKEILGQKASKFLKANTPLSADDIERSL | soluble
18 | MGHHHHHHSHMLSHNTMMKQRKQQATAIMKEVHGNDVDGMDLGKKVSIPRDIMLEELSHLSNRGARLFKMRQRRSDKYTFENFQYQSRAQINHSIAMQNGKVDGSNLEGGSQQAPLTPPNTPDPRSPPNPDNIAPGYSGPLKEIPPEKFNTTAVPKYYQSPWEQAISNDPELLEALYPKLFKPEGKAELPDYRSFTRVATPFGGFEKASRMVKFKVPDFELLLLTDPRFMSFVNPLSGRRSFNRTPKGWISENIPIVITTEPTDDTTVPESEDL | not soluble
19 | MGHHHHHHSHMMAALSRKMRVAPFKVGPDYIDPGYHGMAAGHQGRNLDSVMCGIDLIGPLYAHGSANADIAVVEGVMGLFDGRIAQGQNTADAQAQGSSAEIAATLGLPVVLVVDVRGMSQSVGAVVRGFATADPHVRIAGVILNKVGTDRHAEVCREAVEAVGVRVLGAIP | not soluble
20 | MGHHHHHHSHMNIQKDGKNVTSRREWIEKLVESKGKVDIEELASHFGVSSMTIRRDLMHLEEHNKLIRTHGGAVAPSSLIGETPYAQKQTEHLMEKQLIAKQASTLVPEGATILVDSGTTTLELIKLLKDRNDLTIVTNDITIAAELVNASPKCIVTGGELQLGVGALFGPQTEGMIRELHVDLFFLGAHAVDEAAGVTAPTLEKAAIKKRMMEAAQTTWLICDSSKFSKRAFANVCQLTKLEGIITDANFLTSFKHENYHDNMVIAQA | soluble
21 | MGHHHHHHSHMNPLKNIKCTKCPEVFQGVEKLVFHMRAQHFIFMCPRCGKQFNHSSNLNRHMNVHRGVKSHSCGICGKCFTQKSTLHDHLNLHSGARPYRCSYCDVRFAHKPAIRRHLKEQHGKTTAENVL | soluble
22 | MGHHHHHHSHMNQSRSRSDGGSEETLPQDHNHHENERRWQQERLHREEAYYQFINELNDEDYRLMRDHNLLGTPGEITSEELQQRLDGVKEQLASQPDLRDGTNYRDSEVPRESSHEDSLLEWLNTFRRTGNATRSGQNGNQTWRAALPDTS | not soluble
23 | MGHHHHHHSHMQENQQITKKEQYNLNKLQKRLRRNVGEAIADFNMIEEGDRIMVCLSGGKDSYTMLEILRNLQQSAPINFSLVAVNLDQKQPGFPEHVLPEYLEKLGVEYKIVEENTYGIVKEKIPEGKTTCSLCSRLRRGILYRTATELGATKIALGHHRDDILQTLFLNMFYGGKMKGMPPKLMSDDGKHIVIRPLAYCREKDIQRFADAKAFPIIPCNLCGSQPNLQRQVIADMLRDWDKRYPGRIETMFSAMQNVVPSHLCDTNLFDFKGITHGSEVVNGGDLAFDREEIPLQPACWQPEEDENQLDELRLNVVEVK | soluble
24 | MGHHHHHHSHMQTFQLDTERLCQAAKLYQHTKSDFGLNGMIQLSGSCNNMSLSVLGSIGGCAILRLELLEAARLHSSKDSSKSAIYSFRNASSLGREFTHGGELFGPKMESASLSFYGHHGVKYVEAQFVHDSSSKTVHTAAMQPITIPPSCAFDDREANGIVTLSTKTAAALVKWLKQHTKTCQSPVKVSISEILGVMVLSVGDASMTVDVTPVNVSSGKKTRGGNKASDSGTISADATVHVNGHCLIRSLIVCKVPGCTTPRVKFHACGILEVDGAPVKQGELTQVKLSVALLNVDSSTGRVLKEPVVTGASKDRGASKSEDADGSPPVPDHPKESLTSDSDSSVPGPRSTDLSSLTHTPSDRFSSDLRSGCGGQQFLKRPPPKKDREPTTKRPKLHFNHFP | soluble
25 | MGHHHHHHSHMRKNESYLNQPAPPIPIPTLSLMGGCREHFENHWKGRARWLMPVIPALWEAKAGRSPEVRSSKPAWPTWRNPIFTKNTKISQVLELFLNYQSLICALEKQKRQKGSLAIFCWSFQGGCVSKRPDVPSLKSQKPKRKRITGRKRLSKGFWSLLFSNLGRF | not soluble
